Reference: patent publication US20230220589A1

What was measured:
[1] = target: M44-modified A NTAA target peptides (M44-A-P2-peptide); experiment: encoding assay; P2 E
[2] = target: M44-modified D NTAA target peptides; experiment: encoding assay; P2 E
[3] = target: M44-modified E NTAA target peptides; experiment: encoding assay; P2 E
[4] = target: M44-modified F NTAA target peptides (M44-F-P2-peptide); experiment: encoding assay; P2 E
[5] = target: M44-modified H NTAA target peptides; experiment: encoding assay; P2 E
[6] = target: M44-modified I NTAA target peptides (M44-I-P2-peptide); experiment: encoding assay; P2 E
[7] = target: M44-modified L NTAA target peptides (M44-L-P2-peptide); experiment: encoding assay; P2 E
[8] = target: M44-modified M NTAA target peptides; experiment: encoding assay; P2 E
[9] = target: M44-modified N NTAA target peptides; experiment: encoding assay; P2 E
[10] = target: M44-modified P NTAA target peptides; experiment: encoding assay; P2 E
[11] = target: M44-modified Q NTAA target peptides; experiment: encoding assay; P2 E
[12] = target: M44-modified S NTAA target peptides; experiment: encoding assay; P2 E
[13] = target: M44-modified T NTAA target peptides; experiment: encoding assay; P2 E
[14] = target: M44-modified V NTAA target peptides; experiment: encoding assay; P2 E
[15] = target: M44-modified W NTAA target peptides; experiment: encoding assay; P2 E
[16] = target: M44-modified Y NTAA target peptides (M44-Y-P2-peptide); experiment: encoding assay; P2 E
[17] = target: M44-modified A NTAA target peptides (M44-A-P2-peptide); experiment: encoding assay; P2 A
[18] = target: M44-modified G NTAA target peptides (M44-G-P2-peptide); experiment: encoding assay; P2 A
[19] = target: M44-modified H NTAA target peptides; experiment: encoding assay; P2 A
[20] = target: M44-modified I NTAA target peptides (M44-I-P2-peptide); experiment: encoding assay; P2 A
[21] = target: M44-modified M NTAA target peptides; experiment: encoding assay; P2 A
[22] = target: M44-modified N NTAA target peptides; experiment: encoding assay; P2 A
[23] = target: M44-modified Q NTAA target peptides; experiment: encoding assay; P2 A
[24] = target: M44-modified V NTAA target peptides; experiment: encoding assay; P2 A
[25] = target: M44-modified W NTAA target peptides; experiment: encoding assay; P2 A
[26] = target: M44-modified Y NTAA target peptides (M44-Y-P2-peptide); experiment: encoding assay; P2 A
[27] = target: M44-modified A NTAA target peptides (M44-A-P2-peptide); experiment: encoding assay; P2 D
[28] = target: M44-modified F NTAA target peptides (M44-F-P2-peptide); experiment: encoding assay; P2 D
[29] = target: M44-modified G NTAA target peptides (M44-G-P2-peptide); experiment: encoding assay; P2 D
[30] = target: M44-modified I NTAA target peptides (M44-I-P2-peptide); experiment: encoding assay; P2 D
[31] = target: M44-modified L NTAA target peptides (M44-L-P2-peptide); experiment: encoding assay; P2 D
[32] = target: M44-modified M NTAA target peptides; experiment: encoding assay; P2 D
[33] = target: M44-modified N NTAA target peptides; experiment: encoding assay; P2 D
[34] = target: M44-modified Q NTAA target peptides; experiment: encoding assay; P2 D
[35] = target: M44-modified W NTAA target peptides; experiment: encoding assay; P2 D
[36] = target: M44-modified Y NTAA target peptides (M44-Y-P2-peptide); experiment: encoding assay; P2 D
[37] = target: M44-modified A NTAA target peptides (M44-A-P2-peptide); experiment: encoding assay; P2 H
[38] = target: M44-modified D NTAA target peptides; experiment: encoding assay; P2 H
[39] = target: M44-modified F NTAA target peptides (M44-F-P2-peptide); experiment: encoding assay; P2 H
[40] = target: M44-modified H NTAA target peptides; experiment: encoding assay; P2 H
[41] = target: M44-modified I NTAA target peptides (M44-I-P2-peptide); experiment: encoding assay; P2 H
[42] = target: M44-modified L NTAA target peptides (M44-L-P2-peptide); experiment: encoding assay; P2 H
[43] = target: M44-modified M NTAA target peptides; experiment: encoding assay; P2 H
[44] = target: M44-modified N NTAA target peptides; experiment: encoding assay; P2 H
[45] = target: M44-modified P NTAA target peptides; experiment: encoding assay; P2 H
[46] = target: M44-modified Q NTAA target peptides; experiment: encoding assay; P2 H
[47] = target: M44-modified T NTAA target peptides; experiment: encoding assay; P2 H
[48] = target: M44-modified V NTAA target peptides; experiment: encoding assay; P2 H
[49] = target: M44-modified W NTAA target peptides; experiment: encoding assay; P2 H
[50] = target: M44-modified Y NTAA target peptides (M44-Y-P2-peptide); experiment: encoding assay; P2 H
[51] = target: M44-modified W NTAA target peptides; experiment: encoding assay; P2 V
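Also: fraction of recording tags encoded.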

B1: engineered M44-A binder (SEQ ID NO: 42) (designed binder, not shown: small tags and cut ends; large carriers)
chain: QVSVQPNFQQDKFLGRWFVAGLASNSSWDREKVAALSGAKMVVAPATDGGLNVTRTMLRKNQCETYTGLLQPAGSLGSYSWRSPHPGSTGSESVVETDYDQYALVYGQGSKGPGEDLRAAALWSRTQTPRAELKEKFTAFSKAQGFTEDTIVFLPQTDKCMTEQ
- encoding yield [1]: 0.05
- encoding yield [2]: 0.03
- encoding yield [3]: 0.02
- encoding yield [4]: 0.02
- encoding yield [5]: 0.03
- encoding yield [6]: 0.02
- encoding yield [7]: 0.04
- encoding yield [8]: 0.01
- encoding yield [9]: 0.02
- encoding yield [10]: 0.05
- encoding yield [11]: 0.03
- encoding yield [12]: 0.02
- encoding yield [13]: 0.03
- encoding yield [14]: 0.06
- encoding yield [15]: 0.04
- encoding yield [16]: 0.06
- encoding yield [17]: 0.11
- encoding yield [18]: 0.04
- encoding yield [19]: 0.01
- encoding yield [20]: 0.05
- encoding yield [21]: 0.03
- encoding yield [22]: 0.02
- encoding yield [23]: 0.03
- encoding yield [24]: 0.03
- encoding yield [25]: 0.03
- encoding yield [26]: 0.03
- encoding yield [27]: 0.03
- encoding yield [28]: 0.06
- encoding yield [29]: 0.03
- encoding yield [30]: 0.02
- encoding yield [31]: 0.04
- encoding yield [32]: 0.04
- encoding yield [33]: 0.02
- encoding yield [34]: 0.02
- encoding yield [35]: 0.03
- encoding yield [36]: 0.03
- encoding yield [37]: 0.05
- encoding yield [38]: 0.04
- encoding yield [39]: 0.02
- encoding yield [40]: 0.02
- encoding yield [41]: 0.04
- encoding yield [42]: 0.03
- encoding yield [43]: 0.04
- encoding yield [44]: 0.05
- encoding yield [45]: 0.05
- encoding yield [46]: 0.05
- encoding yield [47]: 0.04
- encoding yield [48]: 0.03
- encoding yield [49]: 0.03
- encoding yield [50]: 0.07
- encoding yield [51]: 0.06
